Results published in patent US20040176301A1 (CYCLACEL, published 2004).
Numbered stars: 1 amine (or outer) side, 2 acyl side, 3 side chain; on linkers, the order of the positions; unused ones are H or OH. Square brackets hold non-standard residues; d marks the D form. Ends that are not written are not given here. Phe(3R-OH) = O=C([C@@H](N[*:1])[C@H](O[*:3])c1ccccc1)[*:2]; 1Nal = N[C@@H](Cc1cccc2ccccc12)C(=O)O; Cha = N[C@@H](CC1CCCCC1)C(=O)O; dPsa = D-O-acetylphenylserine; Psa = O-acetylphenylserine; Nle = CCCC[C@H](N)C(=O)O; Nva = CCC[C@H](N)C(=O)O; Abu = CC[C@H](N)C(=O)O; dPse = D-phenylserine

B1: H-His-Ala-Lys-Arg-Arg-Leu-Cha-Phe-NH2 (peptide)
peptide: H-HAKRRL[Cha]F-NH2
SMILES: CC(C)C[C@H](NC(=O)[C@H](CCCNC(=N)N)NC(=O)[C@H](CCCNC(=N)N)NC(=O)[C@H](CCCCN)NC(=O)[C@H](C)NC(=O)[C@@H](N)Cc1c[nH]cn1)C(=O)N[C@@H](CC1CCCCC1)C(=O)N[C@@H](Cc1ccccc1)C(N)=O
B2: H-His-Ala-Lys-Arg-Arg-Leu-Nle-Phe-NH2 (peptide)
peptide: H-HAKRRL[Nle]F-NH2
SMILES: CCCC[C@H](NC(=O)[C@H](CC(C)C)NC(=O)[C@H](CCCNC(=N)N)NC(=O)[C@H](CCCNC(=N)N)NC(=O)[C@H](CCCCN)NC(=O)[C@H](C)NC(=O)[C@@H](N)Cc1c[nH]cn1)C(=O)N[C@@H](Cc1ccccc1)C(N)=O
B3: H-His-Ala-Lys-Arg-Arg-Leu-Nva-Phe-NH2 (peptide)
peptide: H-HAKRRL[Nva]F-NH2
SMILES: CCC[C@H](NC(=O)[C@H](CC(C)C)NC(=O)[C@H](CCCNC(=N)N)NC(=O)[C@H](CCCNC(=N)N)NC(=O)[C@H](CCCCN)NC(=O)[C@H](C)NC(=O)[C@@H](N)Cc1c[nH]cn1)C(=O)N[C@@H](Cc1ccccc1)C(N)=O
B4: H-His-Ala-Lys-Arg-Arg-Leu-1Nap-Phe-NH2 (peptide)
peptide: H-HAKRRL[1Nal]F-NH2
SMILES: CC(C)C[C@H](NC(=O)[C@H](CCCNC(=N)N)NC(=O)[C@H](CCCNC(=N)N)NC(=O)[C@H](CCCCN)NC(=O)[C@H](C)NC(=O)[C@@H](N)Cc1c[nH]cn1)C(=O)N[C@@H](Cc1cccc2ccccc12)C(=O)N[C@@H](Cc1ccccc1)C(N)=O

These binders were tested against T1, CDK2/cyclin A (UniProt P24941 1-298; P20248 1-432) (assay: cell-based or functional assay).

Row | Relative activity, Kinase Inhibition (CDK2/cyclin A kinase assay, pRb substrate, [ATP] = 100 µM) | Binder
1 | < 0.1 relative to H-His-Ala-Lys-Arg-Arg-Leu-Ile-Phe-NH2 (=1) | H-HSKRRLI[dPsa]-OH [H-His-Ser-Lys-Arg-Arg-Leu-Ile-D-Psa-OH]
2 | < 0.1 relative to H-His-Ala-Lys-Arg-Arg-Leu-Ile-Phe-NH2 (=1) | H-HAKRRLI[dPsa]-OH [H-His-Ala-Lys-Arg-Arg-Leu-Ile-D-Psa-OH]
3 | 22 relative to H-His-Ala-Lys-Arg-Arg-Leu-Ile-Phe-NH2 (=1) | H-HAKRRLI[Psa]-OH [H-His-Ala-Lys-Arg-Arg-Leu-Ile-[L-Psa]-OH]
4 | < 0.1 relative to H-His-Ala-Lys-Arg-Arg-Leu-Ile-Phe-NH2 (=1) | H-HAKRRLI[dPse]-OH [H-His-Ala-Lys-Arg-Arg-Leu-Ile-D-Pse-OH]
5 | < 0.1 relative to H-His-Ala-Lys-Arg-Arg-Leu-Ile-Phe-NH2 (=1) | H-HAKRRLI[Phe(3R-OH)]-OH [H-His-Ala-Lys-Arg-Arg-Leu-Ile-L-Pse-OH]

Each binder was assayed against CDK4/Cyclin D1 complex (UniProt P11802 1-303; P24385 1-295) (assay: cell-based or functional assay).
Chain of CDK4/Cyclin D1 complex (P11802 other isoform, or with tags, fused parts or gaps, chain 1 of 2): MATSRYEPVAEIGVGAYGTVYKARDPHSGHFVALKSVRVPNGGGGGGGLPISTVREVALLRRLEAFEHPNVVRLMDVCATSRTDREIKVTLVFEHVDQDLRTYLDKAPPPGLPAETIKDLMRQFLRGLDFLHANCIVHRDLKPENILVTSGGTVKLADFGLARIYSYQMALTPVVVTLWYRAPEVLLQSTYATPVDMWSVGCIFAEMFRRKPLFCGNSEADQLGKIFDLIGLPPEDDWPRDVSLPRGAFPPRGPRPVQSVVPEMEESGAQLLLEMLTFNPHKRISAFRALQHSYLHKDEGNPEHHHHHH
Chain of CDK4/Cyclin D1 complex (P24385 whole entry, chain 2 of 2): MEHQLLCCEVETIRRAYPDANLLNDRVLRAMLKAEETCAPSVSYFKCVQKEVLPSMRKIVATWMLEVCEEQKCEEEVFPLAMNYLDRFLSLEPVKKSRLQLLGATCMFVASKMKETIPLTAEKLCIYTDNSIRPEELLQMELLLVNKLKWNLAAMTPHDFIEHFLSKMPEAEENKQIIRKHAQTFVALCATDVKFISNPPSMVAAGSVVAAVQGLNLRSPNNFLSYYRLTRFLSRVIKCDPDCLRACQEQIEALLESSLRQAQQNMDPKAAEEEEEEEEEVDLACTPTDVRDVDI

Row | % Inhibition, cyclin D1/CDK4 kinase | IC50, cyclin D1/CDK4 kinase | Binder
6 | 83% | 13 µM | KAXRRLIF (U at position 3 (read as Abu); C-terminal carboxamide) [P21 N-terminus-LIF hybrid KAURRLIF-NH2]
7 | 66% | 42 µM | KA[Abu]RRLFG-NH2 [P21 N-terminus peptide KAURRLFG-NH2]
8 | 42% | – | HSKRRLFG-NH2 [P21 C-terminius-LFG hybrid HSKRRLFG-NH2]

The binders below were run against CDK2/Cyclin E complex (UniProt P24941 1-298; P24864 1-410) (assay: cell-based or functional assay).

Row | % Inhibition, cyclin E/CDK2 kinase | IC50, cyclin E/CDK2 kinase | Binder
9 | 78% | – | KAXRRLIF (U at position 3 (read as Abu); C-terminal carboxamide) [P21 N-terminus-LIF hybrid KAURRLIF-NH2]
10 | 86% | 0.074 µM | KA[Abu]RRLFG-NH2 [P21 N-terminus peptide KAURRLFG-NH2]
11 | 82% | 1.6 µM | HSKRRLFG-NH2 [P21 C-terminius-LFG hybrid HSKRRLFG-NH2]

Target: T1, CDK2/cyclin A
Test: cell-based or functional assay
Remark: another data set of the same source

Row | Relative activity, Kinase Inhibition (CDK2/cyclin A kinase assay, pRb substrate, [ATP] = 100 µM) | Binder
12 | 1.2 relative to H-His-Ala-Lys-Arg-Arg-Leu-Ile-Phe-NH2 (=1) | H-HAKRRLLF-NH2 [H-His-Ala-Lys-Arg-Arg-Leu-Leu-Phe-NH2]
13 | 0.3 relative to H-His-Ala-Lys-Arg-Arg-Leu-Ile-Phe-NH2 (=1) | H-HAKRRLAF-NH2 [H-His-Ala-Lys-Arg-Arg-Leu-Ala-Phe-NH2]
14 | 0.8 relative to H-His-Ala-Lys-Arg-Arg-Leu-Ile-Phe-NH2 (=1) | H-HAKRRLVF-NH2 [H-His-Ala-Lys-Arg-Arg-Leu-Val-Phe-NH2]
15 | 0.3 relative to H-His-Ala-Lys-Arg-Arg-Leu-Ile-Phe-NH2 (=1) | B1
16 | < 0.1 relative to H-His-Ala-Lys-Arg-Arg-Leu-Ile-Phe-NH2 (=1) | H-HAKRRLF-NH2 [H-His-Ala-Lys-Arg-Arg-Leu-Phe-NH2]
17 | 0.4 relative to H-His-Ala-Lys-Arg-Arg-Leu-Ile-Phe-NH2 (=1) | B2
18 | 0.2 relative to H-His-Ala-Lys-Arg-Arg-Leu-Ile-Phe-NH2 (=1) | B3
19 | 0.4 relative to H-His-Ala-Lys-Arg-Arg-Leu-Ile-Phe-NH2 (=1) | H-HAKRRLFF-NH2 [H-His-Ala-Lys-Arg-Arg-Leu-Phe-Phe-NH2]
20 | 0.5 relative to H-His-Ala-Lys-Arg-Arg-Leu-Ile-Phe-NH2 (=1) | B4
